In US9266964:

How the values were obtained:
[1] = target: human plasma kallikrein (human, UniProt P03952 20-390; P03952 391-638); experiment: cell-based or functional assay
Target sequence in this assay (P03952 20-390, chain 1 of 2): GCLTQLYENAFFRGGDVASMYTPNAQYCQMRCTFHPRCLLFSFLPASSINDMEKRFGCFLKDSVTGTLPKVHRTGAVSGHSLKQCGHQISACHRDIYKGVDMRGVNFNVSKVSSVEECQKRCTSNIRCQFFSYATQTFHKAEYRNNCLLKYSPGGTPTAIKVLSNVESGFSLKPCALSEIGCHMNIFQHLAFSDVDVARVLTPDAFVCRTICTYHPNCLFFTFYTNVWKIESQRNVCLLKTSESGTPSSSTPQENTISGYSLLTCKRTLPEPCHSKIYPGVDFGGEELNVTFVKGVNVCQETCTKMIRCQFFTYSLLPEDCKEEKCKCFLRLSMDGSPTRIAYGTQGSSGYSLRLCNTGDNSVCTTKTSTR
Target sequence in this assay (P03952 391-638, chain 2 of 2): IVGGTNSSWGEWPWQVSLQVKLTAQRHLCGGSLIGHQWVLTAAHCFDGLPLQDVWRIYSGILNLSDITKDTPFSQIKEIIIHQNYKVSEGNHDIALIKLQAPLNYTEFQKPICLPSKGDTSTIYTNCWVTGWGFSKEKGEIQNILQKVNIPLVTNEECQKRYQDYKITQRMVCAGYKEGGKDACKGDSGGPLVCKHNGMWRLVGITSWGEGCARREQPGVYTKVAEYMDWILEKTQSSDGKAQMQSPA

[2] = target: T1, human plasma kallikrein (human, UniProt P03952 20-390; P03952 391-638); experiment: apparent inhibition constant (Ki,app) against human pKal, enzyme inhibition
T1 construct: also called pKal; human pKal
T1 sequence (P03952 20-390, chain 1 of 2): as the sequence (P03952 20-390, chain 1 of 2) above
T1 sequence (P03952 391-638, chain 2 of 2): as the sequence (P03952 391-638, chain 2 of 2) above

B1: M209-H07 (Fab, V domains shown)
VH: EVQLLESGGGLVQPGGSLRLSCAASGFTFSHYLMTWVRQAPGKGLEWVSYISPSGGHTIYADSVKGRFTISRDNSKNTLYLQMNSLRAEDTAVYYCARVARGIAARQRTSYYDYWGQGTLVTVSS
VL: DIQMTQSPGTLSLSPGERATLSCRTSQFVNSNYLAWYQQTPGQAPRLLIYGASSRATGIPDRFSGTGYGTDFTLTISRLEPEDYGTYYCQQSSRTPWTFGQGTRVEIK
% inhibition at 10 nM [1]: 76.1%

B2: M209-G01 (Fab, V domains shown)
VH: EVQLLESGGGLVQPGGSLRLSCAASGFTFSHYLMTWVRQAPGKGLEWVSYISPSGGHTIYADSVKGRFTISRDNSKNTLYLQMNSLRAEDTAVYYCARVAQGISGRSRLSYVDYWGQGTLVTVSS
VL: DIQMTQSPGTLSLSPGERATLSCRTSQFVNSNYLAWYQQTPGQAPRLLIYGASSRATGIPDRFSGTGYGTDFTLTISRLEPEDYGTYYCQQSSRTPWTFGQGTRVEIK
% inhibition at 10 nM [1]: 74.8%

B3: M210-A06 (Fab, V domains shown)
VH: EVQLLESGGGLVQPGGSLRLSCAASGFTFSHYLMTWVRQAPGKGLEWVSYISPSGGHTIYADSVKGRFTISRDNSKNTLYLQMNSLRAEDTAVYYCARVARGIAARSRTSQFDYWGQGTLVTVSS
VL: DIQMTQSPGTLSLSPGERATLSCRTSQFVNSNYLAWYQQTPGQAPRLLIYGASSRATGIPDRFSGTGYGTDFTLTISRLEPEDYGTYYCQQSSRTPWTFGQGTRVEIK
% inhibition at 10 nM [1]: 74.8%

B4: M209-D02 (Fab, V domains shown)
VH: EVQLLESGGGLVQPGGSLRLSCAASGFTFSHYLMTWVRQAPGKGLEWVSYISPSGGHTIYADSVKGRFTISRDNSKNTLYLQMNSLRAEDTAVYYCARVARGITARSRTSYFDDWGQGTLVTVSS
VL: DIQMTQSPGTLSLSPGERATLSCRTSQFVNSNYLAWYQQTPGQAPRLLIYGASSRATGIPDRFSGTGYGTDFTLTISRLEPEDYGTYYCQQSSRTPWTFGQGTRVEIK
% inhibition at 10 nM [1]: 74.7%

B5: M205-B04 (Fab, V domains shown)
VH: EVQLLESGGGLVQPGGSLRLSCAASGFTFSNYDMIWVRQAPGKGLEWVSSISSSGGTTKYADSVKGRFTISRDNSKNTLYLQMNSLRAEDTAVYYCARVARGIAARSRTSYFDYWGQGTLVTVSS
VL: DIQMTQSPGTLSLSPGERATLSCRTSQFVNSNYLAWYQQTPGQAPRLLIYGASSRATGIPDRFSGTGYGTDFTLTISRLEPEDYGTYYCQQSSRTPWTFGQGTRVEIK
% inhibition at 10 nM [1]: 71.1%

B6: M203-A03 (Fab, V domains shown)
VH: EVQLLESGGGLVQPGGSLRLSCAASGFTFSVYMMIWVRQAPGKGLEWVSSISPSGGQTTYADSVKGRFTISRDNSKNTLYLQMNSLRAEDTAVYYCARVARGIAARSRTSYFDYWGQGTLVTVSS
VL: DIQMTQSPGTLSLSPGERATLSCRTSQFVNSNYLAWYQQTPGQAPRLLIYGASSRATGIPDRFSGTGYGTDFTLTISRLEPEDYGTYYCQQSSRTPWTFGQGTRVEIK
% inhibition at 10 nM [1]: 69.1%

B7: M209-E03 (Fab, V domains shown)
VH: EVQLLESGGGLVQPGGSLRLSCAASGFTFSHYLMTWVRQAPGKGLEWVSYISPSGGHTIYADSVKGRFTISRDNSKNTLYLQMNSLRAEDTAVYYCARQARGIAARSRTSYFDYWGQGTLVTVSS
VL: DIQMTQSPGTLSLSPGERATLSCRTSQFVNSNYLAWYQQTPGQAPRLLIYGASSRATGIPDRFSGTGYGTDFTLTISRLEPEDYGTYYCQQSSRTPWTFGQGTRVEIK
% inhibition at 10 nM [1]: 68.8%

B8: M207-A01 (Fab, V domains shown)
VH: EVQLLESGGGLVQPGGSLRLSCAASGFTFSHYLMTWVRQAPGKGLEWVSYISPSGGHTIYADSVKGRFTISRDNSKNTLYLQMNSLRAEDTAVYYCARVARGISARSRTSCFDYWGQGTLVTVSS
VL: DIQMTQSPGTLSLSPGERATLSCRTSQFVNSNYLAWYQQTPGQAPRLLIYGASSRATGIPDRFSGTGYGTDFTLTISRLEPEDYGTYYCQQSSRTPWTFGQGTRVEIK
% inhibition at 10 nM [1]: 67.2%

B9: M206-C03 (Fab, V domains shown)
VH: EVQLLESGGGLVQPGGSLRLSCAASGFTFSQYMMVWVRQAPGKGLEWVSSIYSSGGNTPYADSVKGRFTISRDNSKNTLYLQMNSLRAEDTAVYYCARVARGIAARSRTSYFDYWGQGTLVTVSS
VL: DIQMTQSPGTLSLSPGERATLSCRTSQFVNSNYLAWYQQTPGQAPRLLIYGASSRATGIPDRFSGTGYGTDFTLTISRLEPEDYGTYYCQQSSRTPWTFGQGTRVEIK
% inhibition at 10 nM [1]: 65.5%

B10: M207-C05 (Fab, V domains shown)
VH: EVQLLESGGGLVQPGGSLRLSCAASGFTFSHYLMTWVRQAPGKGLEWVSYISPSGGHTIYADSVKGRFTISRDNSKNTLYLQMNSLRAEDTAVYYCARVGRGIAARSRTSYFDKWGQGTLVTVSS
VL: DIQMTQSPGTLSLSPGERATLSCRTSQFVNSNYLAWYQQTPGQAPRLLIYGASSRATGIPDRFSGTGYGTDFTLTISRLEPEDYGTYYCQQSSRTPWTFGQGTRVEIK
% inhibition at 10 nM [1]: 61.4%

B11: M205-A12 (Fab, V domains shown)
VH: EVQLLESGGGLVQPGGSLRLSCAASGFTFSQYDMIWVRQAPGKGLEWVSYISSSGGFTRYADSVKGRFTISRDNSKNTLYLQMNSLRAEDTAVYYCARVARGIAARSRTSYFDYWGQGTLVTVSS
VL: DIQMTQSPGTLSLSPGERATLSCRTSQFVNSNYLAWYQQTPGQAPRLLIYGASSRATGIPDRFSGTGYGTDFTLTISRLEPEDYGTYYCQQSSRTPWTFGQGTRVEIK
% inhibition at 10 nM [1]: 58.8%

B12: M205-F03 (Fab, V domains shown)
VH: EVQLLESGGGLVQPGGSLRLSCAASGFTFSSQQMVWVRQAPGKGLEWVSYISPSGGNTYYADSVKGRFTISRDNSKNTLYLQMNSLRAEDTAVYYCARVARGIAARSRTSYFDYWGQGTLVTVSS
VL: DIQMTQSPGTLSLSPGERATLSCRTSQFVNSNYLAWYQQTPGQAPRLLIYGASSRATGIPDRFSGTGYGTDFTLTISRLEPEDYGTYYCQQSSRTPWTFGQGTRVEIK
% inhibition at 10 nM [1]: 58.6%

B13: M203-A01 (Fab, V domains shown)
VH: EVQLLESGGGLVQPGGSLRLSCAASGFTFSNYLMAWVRQAPGKGLEWVSWIVPSGGYTEYADSVKGRFTISRDNSKNTLYLQMNSLRAEDTAVYYCARVARGIAARSRTSYFDYWGQGTLVTVSS
VL: DIQMTQSPGTLSLSPGERATLSCRTSQFVNSNYLAWYQQTPGQAPRLLIYGASSRATGIPDRFSGTGYGTDFTLTISRLEPEDYGTYYCQQSSRTPWTFGQGTRVEIK
% inhibition at 10 nM [1]: 51.4%

B14: M209-B01 (Fab, V domains shown)
VH: EVQLLESGGGLVQPGGSLRLSCAASGFTFSHYLMTWVRQAPGKGLEWVSYISPSGGHTIYADSVKGRFTISRDNSKNTLYLQMNSLRAEDTAVYYCARVARGIVARSRTSNFDQWGQGTLVTVSS
VL: DIQMTQSPGTLSLSPGERATLSCRTSQFVNSNYLAWYQQTPGQAPRLLIYGASSRATGIPDRFSGTGYGTDFTLTISRLEPEDYGTYYCQQSSRTPWTFGQGTRVEIK
% inhibition at 10 nM [1]: 47%

B15: M208-D12 (Fab, V domains shown)
VH: EVQLLESGGGLVQPGGSLRLSCAASGFTFSHYLMTWVRQAPGKGLEWVSYISPSGGHTIYADSVKGRFTISRDNSKNTLYLQMNSLRAEDTAVYYCARLARGIAARSRTSYQDIWGQGTLVTVSS
VL: DIQMTQSPGTLSLSPGERATLSCRTSQFVNSNYLAWYQQTPGQAPRLLIYGASSRATGIPDRFSGTGYGTDFTLTISRLEPEDYGTYYCQQSSRTPWTFGQGTRVEIK
% inhibition at 10 nM [1]: 43.7%

B16: M206-H04 (Fab, V domains shown)
VH: EVQLLESGGGLVQPGGSLRLSCAASGFTFSSYMMVWVRQAPGKGLEWVSSISPSGGYTIQADSVKGRFTISRDNSKNTLYLQMNSLRAEDTAVYYCARVARGIAARSRTSYFDYWGQGTLVTVSS
VL: DIQMTQSPGTLSLSPGERATLSCRTSQFVNSNYLAWYQQTPGQAPRLLIYGASSRATGIPDRFSGTGYGTDFTLTISRLEPEDYGTYYCQQSSRTPWTFGQGTRVEIK
% inhibition at 10 nM [1]: 19%

B17: X67-B03 (antibody, V domains shown)
VH: EVQLLESGGGLVQPGGSLRLSCAASGFTFSAYSMIWVRQAPGKGLEWVSYIRPSGGRTTYADSVKGRFTISRDNSKNTLYLQMNSLRAEDTAVYYCARGGLLLWSRELKSNYFDYWGQGTLVTVSS
VL: DIQMTQSPSSLSAFVGDRVTITCRASQPIDNYLNWYHQKPGKAPKLLIYAASRLQSGVPSRLSGSGFGTDFTLTISSLQPEDFGNYYCQQSYTVPYTFGGGTKVEIR
notes: Single point mutant (F to S at P2 of HC CDR3) of M142-H08; Only variable domains and the start of CH1 are printed; also called 559A-X67-B03
Ki [2]: 2.1 nM

B18: X67-C03 (antibody, V domains shown)
VH: EVQLLESGGGLVQPGGSLRLSCAASGFTFSAYSMIWVRQAPGKGLEWVSYIRPSGGRTTYADSVKGRFTISRDNSKNTLYLQMNSLRAEDTAVYYCARGGLLLWMRELKSNYFDYWGQGTLVTVSS
VL: DIQMTQSPSSLSAFVGDRVTITCRASQPIDNYLNWYHQKPGKAPKLLIYAASRLQSGVPSRLSGSGFGTDFTLTISSLQPEDFGNYYCQQSYTVPYTFGGGTKVEIR
notes: Single point mutant (F to M at P2 of HC CDR3) of M142-H08; the printed HC is used; Only variable domains and the start of CH1 are printed; also called 559A-X67-C03
Ki [2]: 0.7 nM

B19: X67-C09 (antibody, V domains shown)
VH: EVQLLESGGGLVQPGGSLRLSCAASGFTFSAYSMIWVRQAPGKGLEWVSYIRPSGGRTTYADSVKGRFTISRDNSKNTLYLQMNSLRAEDTAVYYCARGGLLLWGRELKSNYFDYWGQGTLVTVSS
VL: DIQMTQSPSSLSAFVGDRVTITCRASQPIDNYLNWYHQKPGKAPKLLIYAASRLQSGVPSRLSGSGFGTDFTLTISSLQPEDFGNYYCQQSYTVPYTFGGGTKVEIR
notes: Single point mutant (F to G at P2 of HC CDR3) of M142-H08; Only variable domains and the start of CH1 are printed; also called 559A-X67-C09
Ki [2]: 8.6 nM

B20: X67-D03 (antibody, V domains shown)
VH: EVQLLESGGGLVQPGGSLRLSCAASGFTFSAYSMIWVRQAPGKGLEWVSYIRPSGGRTTYADSVKGRFTISRDNSKNTLYLQMNSLRAEDTAVYYCARGGLLLWNRELKSNYFDYWGQGTLVTVSS
VL: DIQMTQSPSSLSAFVGDRVTITCRASQPIDNYLNWYHQKPGKAPKLLIYAASRLQSGVPSRLSGSGFGTDFTLTISSLQPEDFGNYYCQQSYTVPYTFGGGTKVEIR
notes: Single point mutant (F to N at P2 of HC CDR3) of M142-H08; Only variable domains and the start of CH1 are printed; also called 559A-X67-D03
Ki [2]: 0.1 nM

B21: X67-E04 (antibody, V domains shown)
VH: EVQLLESGGGLVQPGGSLRLSCAASGFTFSAYSMIWVRQAPGKGLEWVSYIRPSGGRTTYADSVKGRFTISRDNSKNTLYLQMNSLRAEDTAVYYCARGGLLLWDRELKSNYFDYWGQGTLVTVSS
VL: DIQMTQSPSSLSAFVGDRVTITCRASQPIDNYLNWYHQKPGKAPKLLIYAASRLQSGVPSRLSGSGFGTDFTLTISSLQPEDFGNYYCQQSYTVPYTFGGGTKVEIR
notes: Single point mutant (F to D at P2 of HC CDR3) of M142-H08; Only variable domains and the start of CH1 are printed; also called 559A-X67-E04
Ki [2]: 1.3 nM
